Measurements as given in PMC8141032 (Oncogene, 2021).

B1: recombinant Sumo-tagged SWIRM (amino acids 417–580 of BAF155) (domain or fragment)
chain: TAGGKEDEDPAKGDQSRSVDLGEDNVTEQTNHIIIPSYASWFDYNCIHVIERRALPEFFNGKNKSKTPEIYLAYRNFMIDTYRLNPQEYLTSTACRRNLTGDVCAVMRVHAFLEQWGLVNYQVDPESRPMAMGPPPTPHFNVLADTPSGLVPLHLRSPQVPAAQ
B2: recombinant SWIRM domain (amino acids 417–546 of BAF155) (domain or fragment)
chain: TAGGKEDEDPAKGDQSRSVDLGEDNVTEQTNHIIIPSYASWFDYNCIHVIERRALPEFFNGKNKSKTPEIYLAYRNFMIDTYRLNPQEYLTSTACRRNLTGDVCAVMRVHAFLEQWGLVNYQVDPESRPM

Biological target: recombinant Flag-tagged SNF5 (UniProt Q12824 1-385)
Test: pull-down

Chain of recombinant Flag-tagged SNF5 (Q12824 whole entry): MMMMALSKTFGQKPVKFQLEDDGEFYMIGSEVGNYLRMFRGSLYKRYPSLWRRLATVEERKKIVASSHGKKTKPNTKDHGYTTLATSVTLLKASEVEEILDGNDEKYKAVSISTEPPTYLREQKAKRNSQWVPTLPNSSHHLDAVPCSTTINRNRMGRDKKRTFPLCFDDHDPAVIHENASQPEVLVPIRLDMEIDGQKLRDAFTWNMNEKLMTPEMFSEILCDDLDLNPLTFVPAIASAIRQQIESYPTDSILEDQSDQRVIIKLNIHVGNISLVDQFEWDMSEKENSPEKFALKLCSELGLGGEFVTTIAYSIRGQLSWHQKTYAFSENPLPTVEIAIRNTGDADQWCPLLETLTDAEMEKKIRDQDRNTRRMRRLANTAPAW

Row | Binder | binding result
1 | B1 | binds
2 | B2 | binds
